Earlier results as cited in PMC3218206 (Chemical biology & drug design, 2011).

Columns and labels:
[1] = molecular target: Nrf2 14mer peptide (Homo sapiens); assay: ITC

Keap1 (from UniProt Q14145)
Kd [1]: 20 nM

LQLDEETGEFLPIQ
displacement of Nrf2 from Keap1-Nrf2 complex (Keap1-Nrf2 complex): effectively
